Data set [1] concerns the molecule itself. In words: fluorescence correlation spectroscopy (FCS), particle brightness (counts per particle) analysis; FCS-microwell system: single transfected U2OS cell, 500 nM Dex at 37 °C for 20 min, then lysed in a 113 pL PDMS microwell; lysis buffer with 0.1% SDS and Benzonase; bimolecular reaction model fitted in the 0-50 nM range; dimer to monomers.
Data set [2] concerns the molecule itself. In words: fluorescence correlation spectroscopy (FCS), particle brightness (counts per particle) analysis; FCS-microwell system: single transfected U2OS cell lysed in a 113 pL PDMS microwell; absence of Dex; lysis buffer with 0.1% SDS and Benzonase; bimolecular reaction model fitted in the 0-50 nM range; dimer to monomers.

Residue numbers refer to the chain shown, from its start. Names may count otherwise.

What is called Kd is the equilibrium constant for the complex coming apart. A higher Kd goes with lower affinity.

B1: EGFP-fused human glucocorticoid receptor α C421G mutant (natural protein, UniProt P04150 1-777, looked up)
chain: MDSKESLTPGREENPSSVLAQERGDVMDFYKTLRGGATVKVSASSPSLAVASQSDSKQRRLLVDFPKGSVSNAQQPDLSKAVSLSMGLYMGETETKVMGNDLGFPQQGQISLSSGETDLKLLEESIANLNRSTSVPENPKSSASTAVSAAPTEKEFPKTHSDVSSEQQHLKGQTGTNGGNVKLYTTDQSTFDILQDLEFSSGSPGKETNESPWRSDLLIDENCLLSPLAGEDDSFLLEGNSNEDCKPLILPDTKPKIKDNGDLVLSSPSNVTLPQVKTEKEDFIELCTPGVIKQEKLGTVYCQASFPGANIIGNKMSAISVHGVSTSGGQMYHYDMNTASLSQQQDQKPIFNVIPPIPVGSENWNRCQGSGDDNLTSLGTLNFPGRTVFSNGYSSPSMRPDVSSPPSSSSTATTGPPPKLGLVCSDEASGCHYGVLTCGSCKVFFKRAVEGQHNYLCAGRNDCIIDKIRRKNCPACRYRKCLQAGMNLEARKTKKKIKGIQQATTGVSQETSENPGNKTIVPATLPQLTPTLVSLLEVIEPEVLYAGYDSSVPDSTWRIMTTLNMLGGRQVIAAVKWAKAIPGFRNLHLDDQMTLLQYSWMFLMAFALGWRSYRQSSANLLCFAPDLIINEQRMTLPCMYDQCKHMLYVSSELHRLQVSYEEYLCMKTLLLLSSVPKDGLKSQELFDEIRMTYIKELGKAIVKREGNSSQNWQRFYQLTKLLDSMHEVVENLLNYCFQTFLDKTMSIEFPEMLAEIITNQIPKYSNGNIKKLLFHQK
notes: glucocorticoid receptor α, human, with C421G; also called EGFP-GR/C421G; GR/C421G; source: U2OS, transfected (ViaFect), in single-cell lysate
For the protein B1, the Kd in data set [1] turned out to be 220 nM; in data set [2] it was 400 nM.

B2: EGFP-fused human glucocorticoid receptor α A458T mutant (natural protein, UniProt P04150 1-777, looked up)
chain: B1 chain with G421C, A458T
notes: glucocorticoid receptor α, human, with A458T; also called EGFP-GR/A458T; GR/A458T; source: U2OS, transfected (ViaFect), in single-cell lysate
Regarding B2, the dissociation constant (Kd) in data set [1] came to 370 nM; in data set [2], 390 nM.

(Values after PMC5945783, “Relationship Between Homodimeric Glucocorticoid Receptor and Transcriptional Regulation Assessed via an In Vitro Fluorescence Correlation Spectroscopy-Microwell System” (Scientific Reports, 2018).)
